According to US20240261333A1 (published 2024):

T1: PURA (human, UniProt Q00577 2-322)
T1 construct: also called NP_005850.1
T1 sequence (looked up): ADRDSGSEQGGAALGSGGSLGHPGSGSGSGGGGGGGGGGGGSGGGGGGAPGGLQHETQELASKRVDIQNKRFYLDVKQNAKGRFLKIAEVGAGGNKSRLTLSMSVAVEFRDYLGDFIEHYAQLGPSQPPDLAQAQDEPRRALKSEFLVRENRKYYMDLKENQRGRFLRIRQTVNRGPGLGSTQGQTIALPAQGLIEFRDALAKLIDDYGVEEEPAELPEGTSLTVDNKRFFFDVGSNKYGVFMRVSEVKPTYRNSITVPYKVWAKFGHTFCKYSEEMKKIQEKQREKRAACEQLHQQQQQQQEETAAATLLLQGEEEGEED

T2: PLOD1 (human, UniProt Q02809 19-727)
T2 construct: also called NP_000293.2 (+1)
T2 sequence (looked up): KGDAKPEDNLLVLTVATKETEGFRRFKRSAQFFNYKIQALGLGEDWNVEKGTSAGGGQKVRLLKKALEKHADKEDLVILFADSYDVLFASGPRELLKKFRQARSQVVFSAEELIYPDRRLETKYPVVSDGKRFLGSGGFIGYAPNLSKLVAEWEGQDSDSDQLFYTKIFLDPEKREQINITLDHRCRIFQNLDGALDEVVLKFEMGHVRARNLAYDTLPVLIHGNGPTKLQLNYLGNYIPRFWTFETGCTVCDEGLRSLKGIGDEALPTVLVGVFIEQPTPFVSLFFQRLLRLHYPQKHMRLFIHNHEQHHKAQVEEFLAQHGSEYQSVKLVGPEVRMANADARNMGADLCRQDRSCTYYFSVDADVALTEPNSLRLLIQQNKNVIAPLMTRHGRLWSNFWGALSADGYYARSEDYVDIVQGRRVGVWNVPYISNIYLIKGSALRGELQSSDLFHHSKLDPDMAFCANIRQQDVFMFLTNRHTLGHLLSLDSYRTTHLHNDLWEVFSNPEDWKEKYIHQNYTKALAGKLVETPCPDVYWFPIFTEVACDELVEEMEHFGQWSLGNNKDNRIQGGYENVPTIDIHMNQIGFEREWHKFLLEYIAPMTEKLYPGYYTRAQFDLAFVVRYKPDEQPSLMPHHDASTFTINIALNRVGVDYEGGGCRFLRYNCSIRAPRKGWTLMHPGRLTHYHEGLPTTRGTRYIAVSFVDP

T3: PUF60 (human, UniProt Q9UHX1 1-559, limits assumed)
T3 construct: also called NP_016868724.1
T3 sequence (looked up): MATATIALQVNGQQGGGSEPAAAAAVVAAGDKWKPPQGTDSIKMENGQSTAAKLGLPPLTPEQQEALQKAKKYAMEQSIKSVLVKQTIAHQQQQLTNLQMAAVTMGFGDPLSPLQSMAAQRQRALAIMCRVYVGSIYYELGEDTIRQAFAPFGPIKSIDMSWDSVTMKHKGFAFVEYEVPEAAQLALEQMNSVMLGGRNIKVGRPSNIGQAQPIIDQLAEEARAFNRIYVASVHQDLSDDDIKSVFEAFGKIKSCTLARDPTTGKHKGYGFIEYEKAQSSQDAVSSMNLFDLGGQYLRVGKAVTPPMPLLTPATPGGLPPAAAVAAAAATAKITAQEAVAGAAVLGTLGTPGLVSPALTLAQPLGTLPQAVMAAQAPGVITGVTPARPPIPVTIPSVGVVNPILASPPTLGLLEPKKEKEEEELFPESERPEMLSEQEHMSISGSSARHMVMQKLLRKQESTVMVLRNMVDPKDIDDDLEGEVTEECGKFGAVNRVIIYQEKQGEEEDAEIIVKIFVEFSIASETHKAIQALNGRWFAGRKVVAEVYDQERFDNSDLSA


Columns and labels:
Assay in all cases: co-IP with anti-FLAG, N-FLAG B3GNT2, mass spectrometry
[1] = target: T4, DHX9 (human, UniProt Q08211 1-1270)
T4 construct: also called NP_001348.2
T4 sequence (Q08211 whole entry): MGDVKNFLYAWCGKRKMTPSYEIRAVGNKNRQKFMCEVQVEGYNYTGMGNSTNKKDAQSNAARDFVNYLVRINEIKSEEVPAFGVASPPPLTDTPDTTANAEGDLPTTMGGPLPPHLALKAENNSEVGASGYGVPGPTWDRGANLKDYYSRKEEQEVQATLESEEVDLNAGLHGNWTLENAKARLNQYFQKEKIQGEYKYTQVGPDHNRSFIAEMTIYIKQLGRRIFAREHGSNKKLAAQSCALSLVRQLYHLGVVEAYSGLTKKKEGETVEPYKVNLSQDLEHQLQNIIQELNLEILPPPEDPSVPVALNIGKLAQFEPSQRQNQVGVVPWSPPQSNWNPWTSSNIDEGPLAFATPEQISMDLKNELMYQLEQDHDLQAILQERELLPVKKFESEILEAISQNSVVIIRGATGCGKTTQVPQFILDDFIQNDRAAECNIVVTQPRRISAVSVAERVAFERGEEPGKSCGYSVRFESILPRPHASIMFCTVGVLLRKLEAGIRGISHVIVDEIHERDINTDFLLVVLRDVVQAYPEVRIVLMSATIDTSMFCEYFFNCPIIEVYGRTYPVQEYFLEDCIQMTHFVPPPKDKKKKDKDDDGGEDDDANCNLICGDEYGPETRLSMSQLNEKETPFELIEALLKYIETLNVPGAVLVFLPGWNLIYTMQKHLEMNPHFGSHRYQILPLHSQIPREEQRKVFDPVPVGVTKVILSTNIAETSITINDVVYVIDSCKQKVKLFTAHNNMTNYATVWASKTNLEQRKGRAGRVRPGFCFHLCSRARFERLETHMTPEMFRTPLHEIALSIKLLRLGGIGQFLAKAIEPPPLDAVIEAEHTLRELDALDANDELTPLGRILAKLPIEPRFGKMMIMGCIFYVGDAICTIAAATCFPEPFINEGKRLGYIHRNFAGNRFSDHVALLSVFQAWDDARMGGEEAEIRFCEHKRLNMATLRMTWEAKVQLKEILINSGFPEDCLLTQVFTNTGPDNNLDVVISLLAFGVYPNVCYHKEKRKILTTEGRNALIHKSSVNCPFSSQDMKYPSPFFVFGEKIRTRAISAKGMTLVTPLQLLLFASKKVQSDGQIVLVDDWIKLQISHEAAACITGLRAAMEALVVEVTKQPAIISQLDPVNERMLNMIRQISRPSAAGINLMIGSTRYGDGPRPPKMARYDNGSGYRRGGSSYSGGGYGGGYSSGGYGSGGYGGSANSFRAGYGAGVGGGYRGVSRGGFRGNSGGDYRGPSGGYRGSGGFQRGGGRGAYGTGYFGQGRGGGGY

[2] = target: RPS14 (human, UniProt P62263 2-151)
[3] = target: RPL23 (human, UniProt P62829 1-140)
[4] = target: T1, PURA
[5] = target: T2, PLOD1
[6] = target: T3, PUF60

Binder | co-IP mass spectrometry count [1] | co-IP mass spectrometry count [2] | co-IP mass spectrometry count [3] | co-IP/MS count, N-term FLAG [4] | co-IP/MS count, N-term FLAG [5] | co-IP/MS count, N-term FLAG [6]
N-terminal FLAG tagged B3GNT2 (enzyme, human, UniProt Q9NY97 1-397, looked up, FLAG-tagged ORF overexpressed in cells; pulled down from lysate with mouse anti-FLAG; also called N-FLAG B3GNT2; N-term FLAG; not shown: N-terminal FLAG tag) MSVGRRRIKLLGILMMANVFIYFIMEVSKSSSQEKNGKGEVIIPKEKFWKISTPPEAYWNREQEKLNRQYNPILSMLTNQTGEAGRLSNISHLNYCEPDLRVTSVVTGFNNLPDRFKDFLLYLRCRNYSLLIDQPDKCAKKPFLLLAIKSLTPHFARRQAIRESWGQESNAGNQTVVRVFLLGQTPPEDNHPDLSDMLKFESEKHQDILMWNYRDTFFNLSLKEVLFLRWVSTSCPDTEFVFKGDDDVFVNTHHILNYLNSLSKTKAKDLFIGDVIHNAGPHRDKKLKYYIPEVVYSGLYPPYAGGGGFLYSGHLALRLYHITDQVHLYPIDDVYTGMCLQKLGLVPEKHKGFRTFDIEEKNKNNICSYVDLMLVHSRKPQEMIDIWSQLQSAHLKC | 0 | 11 | 7 | – | – | –
N-terminal FLAG tagged B3GNT2 (enzyme, human, UniProt Q9NY97 1-397, looked up, FLAG-tagged ORF overexpressed in A375 cells; pulled down from the lysate with mouse anti-FLAG; also called N-FLAG B3GNT2; N-term FLAG; not shown: N-terminal FLAG tag) MSVGRRRIKLLGILMMANVFIYFIMEVSKSSSQEKNGKGEVIIPKEKFWKISTPPEAYWNREQEKLNRQYNPILSMLTNQTGEAGRLSNISHLNYCEPDLRVTSVVTGFNNLPDRFKDFLLYLRCRNYSLLIDQPDKCAKKPFLLLAIKSLTPHFARRQAIRESWGQESNAGNQTVVRVFLLGQTPPEDNHPDLSDMLKFESEKHQDILMWNYRDTFFNLSLKEVLFLRWVSTSCPDTEFVFKGDDDVFVNTHHILNYLNSLSKTKAKDLFIGDVIHNAGPHRDKKLKYYIPEVVYSGLYPPYAGGGGFLYSGHLALRLYHITDQVHLYPIDDVYTGMCLQKLGLVPEKHKGFRTFDIEEKNKNNICSYVDLMLVHSRKPQEMIDIWSQLQSAHLKC | – | – | – | 0 | 0 | 6
